One may read the stoichiometry N as a count of units in the complex or per binding partner.

Data on one substance can be found in publication PMC2888147.

This assay concerns the target His-tagged KCNE1 C-terminus (E1C) (human) (UniProt P15382). In words: SEC. For orientation: SEC sorts molecules by how far they enter the pores of the column.

Take “His-tagged KCNE1 C-terminus (E1C) (from UniProt P15382 67-129) (domain or fragment)”: the stoichiometry N stood at 2.
